Test results published in publication PMC4813576, “Mit1 Transcription Factor Mediates Methanol Signaling and Regulates the Alcohol Oxidase 1 (AOX1) Promoter in Pichia pastoris*”.

T1: Prm1 ZF domain (Pichia pastoris (Komagataella pastoris)) (UniProt C4R754)
T1 sequence: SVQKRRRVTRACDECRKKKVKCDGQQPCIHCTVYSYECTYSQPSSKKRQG

T2: Mit1 ZF domain (Pichia pastoris (Komagataella pastoris)) (UniProt C4R5Q1)
T2 sequence: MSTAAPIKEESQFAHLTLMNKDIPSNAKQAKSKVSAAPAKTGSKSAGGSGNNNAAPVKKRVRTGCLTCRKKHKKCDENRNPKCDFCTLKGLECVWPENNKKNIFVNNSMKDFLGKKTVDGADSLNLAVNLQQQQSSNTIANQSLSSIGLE

T3: Mit1 ZF domain (Pichia pastoris (Komagataella pastoris), UniProt C4R5Q1 1-150)
T3 sequence: T2 sequence

T4: Prm1 ZF domain (Pichia pastoris (Komagataella pastoris), UniProt C4R754 41-90)
T4 chain: T1 sequence

B1: W2 delta A (dsDNA)
DNA 1: CAATTCATGACTTTATTAGCCTGTCTATCCTGGCCCCCCTGGCGAGGTTCATGTTTGTTTATTTCCGAATGCAACAAGCTCCGCATTACACCCGAACATCACTCCAGATGAGGGCTTTCTGAGTGTGGGGTCAAATAGTTTCATGTTCCCCAAATGGCCCAAAACTGACAGTTTAAACGCTGTCTTG
DNA 2: CAAGACAGCGTTTAAACTGTCAGTTTTGGGCCATTTGGGGAACATGAAACTATTTGACCCCACACTCAGAAAGCCCTCATCTGGAGTGATGTTCGGGTGTAATGCGGAGCTTGTTGCATTCGGAAATAAACAAACATGAACCTCGCCAGGGGGGCCAGGATAGACAGGCTAATAAAGTCATGAATTG
B2: W2 delta B (dsDNA)
DNA 1: CAATTCCTTCTATTAGGCTACTAACACCATGACTTCTGGCCCCCCTGGCGAGGTTCATGTTTGTTTATTTCCGAATGCAACAAGCTCCGCATTACACCCGAACATCACTCCAGATGAGGGCTTTCTGAGTGTGGGGTCAAATAGTTTCATGTTCCCCAAATGGCCCAAAACTGACAGTTTAAACGCTGTCTTG
DNA 2: CAAGACAGCGTTTAAACTGTCAGTTTTGGGCCATTTGGGGAACATGAAACTATTTGACCCCACACTCAGAAAGCCCTCATCTGGAGTGATGTTCGGGTGTAATGCGGAGCTTGTTGCATTCGGAAATAAACAAACATGAACCTCGCCAGGGGGGCCAGAAGTCATGGTGTTAGTAGCCTAATAGAAGGAATTG
B3: W2 delta A delta B (dsDNA)
DNA 1: CAATTCATGACTTCTGGCCCCCCTGGCGAGGTTCATGTTTGTTTATTTCCGAATGCAACAAGCTCCGCATTACACCCGAACATCACTCCAGATGAGGGCTTTCTGAGTGTGGGGTCAAATAGTTTCATGTTCCCCAAATGGCCCAAAACTGACAGTTTAAACGCTGTCTTG
DNA 2: CAAGACAGCGTTTAAACTGTCAGTTTTGGGCCATTTGGGGAACATGAAACTATTTGACCCCACACTCAGAAAGCCCTCATCTGGAGTGATGTTCGGGTGTAATGCGGAGCTTGTTGCATTCGGAAATAAACAAACATGAACCTCGCCAGGGGGGCCAGAAGTCATGAATTG
B4: W3 delta B delta C (dsDNA)
DNA 1: ACAGTTTAAACGCTGTCTTGGAACCTAATATGACAAAAGCGTGACAAGATGAACTAAGTTTGGTTCGTTGAAATGGCCAGTTGGTCAAAAAGAAACTTCCAAAAGTCGGCATACCGTTTGTCTTGTTTGGTATTGATTGACGAATGCTCAAAAAT
DNA 2: ATTTTTGAGCATTCGTCAATCAATACCAAACAAGACAAACGGTATGCCGACTTTTGGAAGTTTCTTTTTGACCAACTGGCCATTTCAACGAACCAAACTTAGTTCATCTTGTCACGCTTTTGTCATATTAGGTTCCAAGACAGCGTTTAAACTGT
B5: W3 delta D (dsDNA)
DNA 1: ACAGTTTAAACGCTGTCTTGGAACCTAATATGACAAAAGCGTGATCTCATCCAAGATGAACTAAGTTTGGTTCGTTGAAATGCTAACGGCCAGTTGGTCAAAAAGAAACTTCCGAATGCTCAAAAAT
DNA 2: ATTTTTGAGCATTCGGAAGTTTCTTTTTGACCAACTGGCCGTTAGCATTTCAACGAACCAAACTTAGTTCATCTTGGATGAGATCACGCTTTTGTCATATTAGGTTCCAAGACAGCGTTTAAACTGT

Legend:
[1] = biological target: T1, Prm1 ZF domain (Pichia pastoris (Komagataella pastoris)); experiment: EMSA; settings: EMSA: 50 mM Tris-HCl pH 8.0, 50 mM NaCl, 1 mM DTT, 0.05% NP-40, 50 ug/ml poly[d(I-C)], 5% glycerol, 30 min at 4 C; about 30 nM probe, 0-1 uM protein. …
[2] = biological target: T2, Mit1 ZF domain (Pichia pastoris (Komagataella pastoris)); experiment: EMSA; settings: EMSA: 50 mM Tris-HCl pH 8.0, 50 mM NaCl, 1 mM DTT, 0.05% NP-40, 50 ug/ml poly[d(I-C)], 5% glycerol, 30 min at 4 C; about 30 nM probe, 0-1 uM protein. …
Mit1 ZF domain = biological target: T3, Mit1 ZF domain; experiment: EMSA; EMSA: 50 mM Tris-HCl pH 8.0, 50 mM NaCl, 1 mM DTT, 0.05% NP-40, 50 ug/ml poly[d(I-C)], 5% glycerol, 30 min at 4 C; about 30 nM probe, 0-1 uM protein. Footprinting: 350 ng probe in 40 ul, 30 min at 25 C; settings: protein: recombinant; tags: His6; label: Cy5
Prm1 ZF domain = biological target: T4, Prm1 ZF domain; experiment: as above; settings: protein: recombinant; tags: His6; label: Cy5

Molecule | binding [1] | binding result (Mit1 ZF domain) | also measured
ACAGAATCTGGAGGTGTAAACACCGTCATTCCCTAATCTAAGTTTCTGTCCAGCCGTTTAGAAAGTTCCTCTTCGTCAATAAAGTTTAACTTTGAACGTGAGAGTTGAGCTAATCGGAAATACTCCCGAGAGCACACCCGAGCAGTGAAGCGGGGCATCATCAAAAGAATTAAGGGGTGCTGGGTGCGGATTGCGCGCAGTAGCTGGCATCAATGCCAAACGTAGAACTCATACATTCTCCTATCAGAATCATACGACATCGAGAGATACACCAGCCAGCACCACTTGAACACTCCCAAT (double strand) [PMIT1-A] | binds | – | –
ATTTTTGAGCATTCGTCAATCAATACCAAACAAGACAAACGGTATGCCGACTTTTGGAAGTTTCTTTTTGACCAACTGGCCGTTAGCATTTCAACGAACCAAACTTAGTTCATCTTGGATGAGATCACGCTTTTGTCATATTAGGTTCCAAGACAGCGTTTAAACTGT (double strand) [PAOX1 W3] | binds | – | binding [2]: binds
CAATTCCTTCTATTAGGCTACTAACACCATGACTTTATTAGCCTGTCTATCCTGGCCCCCCTGGCGAGGTTCATGTTTGTTTATTTCCGAATGCAACAAGCTCCGCATTACACCCGAACATCACTCCAGATGAGGGCTTTCTGAGTGTGGGGTCAAATAGTTTCATGTTCCCCAAATGGCCCAAAACTGACAGTTTAAACGCTGTCTTG (double strand) [PAOX1 W2] | no binding | – | binding [2]: binds
GATAGCACTCTGGATTGATCAGAAACTTCATATCCGGAGACAGATACTTGTCTGTCTTGCATATGGGGCAATATTCTTCAGTATCCATCCGATGATTACGATTAGTATTAGGTTGATGAATAATCCATAATGGTCCCCTGATGGAATATGCTCGCGAAGA (double strand) [PPRM1-A] | binds | – | –
GTTCTTCCCGTTCCGCTCTATCCGATAAGAGGTTGGCTTCCGAGAAGGTTGGTAGTTGGAATGACGTACAAAATGTACAACAAAGCAGATGTTGTTTAGCGCGATCGCCCCAACCCCTCTTGTTGTTAGACAGTCTTATGCATATTTCGTAGACCCGGGACTGTACATTCGTCCGTCCTCAACCATTGGTCATTTGGTAC (double strand) [PMIT1-D] | binds | – | –
TTGCTGTCAAGTAGGGGTTAGAACAGTTAAATTTTGATCATGAACGTTAGGCTATCAGCAGTATTCCCACCAGAATCTTGGAAGCATACAATGTGGAGACAATGCATAATCATCCAAAAAGCGGGTGTTTCCCCATTTGCGTTTCGGCACAGGTGCACCGGGGTTCAGAAGCGATAGAGAGACTGCGCTAAGCATTAATGAGATTATTTTTGAGCATTCGTCAAT (double strand) [PAOX1 W4] | binds | – | binding [2]: no binding
B1 | – | binds | –
B2 | – | binds | –
B3 | – | no binding | –
B4 | – | binds | –
B5 | – | binds | binding result (Prm1 ZF domain): no binding
